Laboratory results taken from patent publication US20140213513A1 (Sanofi, priority 2012, published 2014).
*1 amine or outer side, *2 acyl side, *3 side chain or, on linkers, in order; H or OH if unused. Where no end group is shown, it is not given here. Side-chain parts run from the residue outwards. [ ]: non-standard residue; d: D form. The star is where a group is joined. γGlu = O=C(O)[C@H](CCC(=O)[*:2])N[*:1]; Stearoyl = CCCCCCCCCCCCCCCCCC(=O)*; Palmitoyl = CCCCCCCCCCCCCCCC(=O)*; Aib = CC(C)(N)C(=O)O

T1: human GIP receptor (human, UniProt P48546 22-466)
T1 sequence (looked up): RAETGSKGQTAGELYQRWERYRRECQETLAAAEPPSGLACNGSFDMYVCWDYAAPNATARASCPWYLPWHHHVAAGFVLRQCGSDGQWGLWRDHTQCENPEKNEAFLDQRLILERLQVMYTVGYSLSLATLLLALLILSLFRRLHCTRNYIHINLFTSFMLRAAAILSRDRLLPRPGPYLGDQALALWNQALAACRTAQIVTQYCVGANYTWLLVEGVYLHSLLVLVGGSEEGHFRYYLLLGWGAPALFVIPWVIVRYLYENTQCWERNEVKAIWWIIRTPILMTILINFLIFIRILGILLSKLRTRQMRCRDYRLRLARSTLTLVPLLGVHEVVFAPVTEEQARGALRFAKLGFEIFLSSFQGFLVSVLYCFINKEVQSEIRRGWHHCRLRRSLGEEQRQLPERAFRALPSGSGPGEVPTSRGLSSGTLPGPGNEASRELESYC

B1: exendin-4 peptide analogue SEQ ID NO: 16 (peptide)
peptide: Y[Aib]EGTFTSDLSIQK([γGlu-Stearoyl])ESKAA[Aib]EFIEWLKAGGPSSGAPPPSK-NH2
modifications: N-terminus assumed
SMILES: CCCCCCCCCCCCCCCCCC(=O)N[C@@H](CCC(=O)NCCCC[C@H](NC(=O)[C@H](CCC(N)=O)NC(=O)[C@@H](NC(=O)[C@H](CO)NC(=O)[C@H](CC(C)C)NC(=O)[C@H](CC(=O)O)NC(=O)[C@H](CO)NC(=O)[C@@H](NC(=O)[C@H](Cc1ccccc1)NC(=O)[C@@H](NC(=O)CNC(=O)[C@H](CCC(=O)O)NC(=O)C(C)(C)NC(=O)[C@@H](N)Cc1ccc(O)cc1)[C@@H](C)O)[C@@H](C)O)[C@@H](C)CC)C(=O)N[C@@H](CCC(=O)O)C(=O)N[C@@H](CO)C(=O)N[C@@H](CCCCN)C(=O)N[C@@H](C)C(=O)N[C@@H](C)C(=O)NC(C)(C)C(=O)N[C@@H](CCC(=O)O)C(=O)N[C@@H](Cc1ccccc1)C(=O)N[C@H](C(=O)N[C@@H](CCC(=O)O)C(=O)N[C@@H](Cc1c[nH]c2ccccc12)C(=O)N[C@@H](CC(C)C)C(=O)N[C@@H](CCCCN)C(=O)N[C@@H](C)C(=O)NCC(=O)NCC(=O)N1CCC[C@H]1C(=O)N[C@@H](CO)C(=O)N[C@@H](CO)C(=O)NCC(=O)N[C@@H](C)C(=O)N1CCC[C@H]1C(=O)N1CCC[C@H]1C(=O)N1CCC[C@H]1C(=O)N[C@@H](CO)C(=O)N[C@@H](CCCCN)C(N)=O)[C@@H](C)CC)C(=O)O
B2: exendin-4 peptide analogue SEQ ID NO: 17 (peptide)
peptide: Y[Aib]EGTFTSDLSKQK([γGlu-Palmitoyl])EKEAA[Aib]EFIEWLKAGGPSSGAPPPS-NH2
modifications: N-terminus assumed
SMILES: CCCCCCCCCCCCCCCC(=O)N[C@@H](CCC(=O)NCCCC[C@H](NC(=O)[C@H](CCC(N)=O)NC(=O)[C@H](CCCCN)NC(=O)[C@H](CO)NC(=O)[C@H](CC(C)C)NC(=O)[C@H](CC(=O)O)NC(=O)[C@H](CO)NC(=O)[C@@H](NC(=O)[C@H](Cc1ccccc1)NC(=O)[C@@H](NC(=O)CNC(=O)[C@H](CCC(=O)O)NC(=O)C(C)(C)NC(=O)[C@@H](N)Cc1ccc(O)cc1)[C@@H](C)O)[C@@H](C)O)C(=O)N[C@@H](CCC(=O)O)C(=O)N[C@@H](CCCCN)C(=O)N[C@@H](CCC(=O)O)C(=O)N[C@@H](C)C(=O)N[C@@H](C)C(=O)NC(C)(C)C(=O)N[C@@H](CCC(=O)O)C(=O)N[C@@H](Cc1ccccc1)C(=O)N[C@H](C(=O)N[C@@H](CCC(=O)O)C(=O)N[C@@H](Cc1c[nH]c2ccccc12)C(=O)N[C@@H](CC(C)C)C(=O)N[C@@H](CCCCN)C(=O)N[C@@H](C)C(=O)NCC(=O)NCC(=O)N1CCC[C@H]1C(=O)N[C@@H](CO)C(=O)N[C@@H](CO)C(=O)NCC(=O)N[C@@H](C)C(=O)N1CCC[C@H]1C(=O)N1CCC[C@H]1C(=O)N1CCC[C@H]1C(=O)N[C@@H](CO)C(N)=O)[C@@H](C)CC)C(=O)O
B3: exendin-4 peptide analogue SEQ ID NO: 18 (peptide)
peptide: Y[Aib]HGTFTSDLSIQK([γGlu-Stearoyl])EKRAA[Aib]EFIEWLKNTGPSSGAPPPS-NH2
modifications: N-terminus assumed
SMILES: CCCCCCCCCCCCCCCCCC(=O)N[C@@H](CCC(=O)NCCCC[C@H](NC(=O)[C@H](CCC(N)=O)NC(=O)[C@@H](NC(=O)[C@H](CO)NC(=O)[C@H](CC(C)C)NC(=O)[C@H](CC(=O)O)NC(=O)[C@H](CO)NC(=O)[C@@H](NC(=O)[C@H](Cc1ccccc1)NC(=O)[C@@H](NC(=O)CNC(=O)[C@H](Cc1c[nH]cn1)NC(=O)C(C)(C)NC(=O)[C@@H](N)Cc1ccc(O)cc1)[C@@H](C)O)[C@@H](C)O)[C@@H](C)CC)C(=O)N[C@@H](CCC(=O)O)C(=O)N[C@@H](CCCCN)C(=O)N[C@@H](CCCNC(=N)N)C(=O)N[C@@H](C)C(=O)N[C@@H](C)C(=O)NC(C)(C)C(=O)N[C@@H](CCC(=O)O)C(=O)N[C@@H](Cc1ccccc1)C(=O)N[C@H](C(=O)N[C@@H](CCC(=O)O)C(=O)N[C@@H](Cc1c[nH]c2ccccc12)C(=O)N[C@@H](CC(C)C)C(=O)N[C@@H](CCCCN)C(=O)N[C@@H](CC(N)=O)C(=O)N[C@H](C(=O)NCC(=O)N1CCC[C@H]1C(=O)N[C@@H](CO)C(=O)N[C@@H](CO)C(=O)NCC(=O)N[C@@H](C)C(=O)N1CCC[C@H]1C(=O)N1CCC[C@H]1C(=O)N1CCC[C@H]1C(=O)N[C@@H](CO)C(N)=O)[C@@H](C)O)[C@@H](C)CC)C(=O)O
B4: exendin-4 peptide analogue SEQ ID NO: 19 (peptide)
peptide: Y[Aib]QGTFTSDLSIQK([γGlu-Palmitoyl])EKRLA[Aib]EFIEWLKNTGPSSGAPPPS-NH2
modifications: N-terminus assumed
SMILES: CCCCCCCCCCCCCCCC(=O)N[C@@H](CCC(=O)NCCCC[C@H](NC(=O)[C@H](CCC(N)=O)NC(=O)[C@@H](NC(=O)[C@H](CO)NC(=O)[C@H](CC(C)C)NC(=O)[C@H](CC(=O)O)NC(=O)[C@H](CO)NC(=O)[C@@H](NC(=O)[C@H](Cc1ccccc1)NC(=O)[C@@H](NC(=O)CNC(=O)[C@H](CCC(N)=O)NC(=O)C(C)(C)NC(=O)[C@@H](N)Cc1ccc(O)cc1)[C@@H](C)O)[C@@H](C)O)[C@@H](C)CC)C(=O)N[C@@H](CCC(=O)O)C(=O)N[C@@H](CCCCN)C(=O)N[C@@H](CCCNC(=N)N)C(=O)N[C@@H](CC(C)C)C(=O)N[C@@H](C)C(=O)NC(C)(C)C(=O)N[C@@H](CCC(=O)O)C(=O)N[C@@H](Cc1ccccc1)C(=O)N[C@H](C(=O)N[C@@H](CCC(=O)O)C(=O)N[C@@H](Cc1c[nH]c2ccccc12)C(=O)N[C@@H](CC(C)C)C(=O)N[C@@H](CCCCN)C(=O)N[C@@H](CC(N)=O)C(=O)N[C@H](C(=O)NCC(=O)N1CCC[C@H]1C(=O)N[C@@H](CO)C(=O)N[C@@H](CO)C(=O)NCC(=O)N[C@@H](C)C(=O)N1CCC[C@H]1C(=O)N1CCC[C@H]1C(=O)N1CCC[C@H]1C(=O)N[C@@H](CO)C(N)=O)[C@@H](C)O)[C@@H](C)CC)C(=O)O
B5: exendin-4 peptide analogue SEQ ID NO: 20 (peptide)
peptide: Y[Aib]EGTFTSDLSIQK([γGlu-Palmitoyl])EKRAA[Aib]EFIEWLKRAGPSSGAPPPS-NH2
modifications: N-terminus assumed
SMILES: CCCCCCCCCCCCCCCC(=O)N[C@@H](CCC(=O)NCCCC[C@H](NC(=O)[C@H](CCC(N)=O)NC(=O)[C@@H](NC(=O)[C@H](CO)NC(=O)[C@H](CC(C)C)NC(=O)[C@H](CC(=O)O)NC(=O)[C@H](CO)NC(=O)[C@@H](NC(=O)[C@H](Cc1ccccc1)NC(=O)[C@@H](NC(=O)CNC(=O)[C@H](CCC(=O)O)NC(=O)C(C)(C)NC(=O)[C@@H](N)Cc1ccc(O)cc1)[C@@H](C)O)[C@@H](C)O)[C@@H](C)CC)C(=O)N[C@@H](CCC(=O)O)C(=O)N[C@@H](CCCCN)C(=O)N[C@@H](CCCNC(=N)N)C(=O)N[C@@H](C)C(=O)N[C@@H](C)C(=O)NC(C)(C)C(=O)N[C@@H](CCC(=O)O)C(=O)N[C@@H](Cc1ccccc1)C(=O)N[C@H](C(=O)N[C@@H](CCC(=O)O)C(=O)N[C@@H](Cc1c[nH]c2ccccc12)C(=O)N[C@@H](CC(C)C)C(=O)N[C@@H](CCCCN)C(=O)N[C@@H](CCCNC(=N)N)C(=O)N[C@@H](C)C(=O)NCC(=O)N1CCC[C@H]1C(=O)N[C@@H](CO)C(=O)N[C@@H](CO)C(=O)NCC(=O)N[C@@H](C)C(=O)N1CCC[C@H]1C(=O)N1CCC[C@H]1C(=O)N1CCC[C@H]1C(=O)N[C@@H](CO)C(N)=O)[C@@H](C)CC)C(=O)O
B6: exendin-4 peptide analogue SEQ ID NO: 21 (peptide)
peptide: Y[Aib]QGTFTSDLSIQK(Palmitoyl)EQRAA[Aib]EFIEWLKNTGPSSGAPPPS-NH2
modifications: N-terminus assumed
SMILES: CCCCCCCCCCCCCCCC(=O)NCCCC[C@H](NC(=O)[C@H](CCC(N)=O)NC(=O)[C@@H](NC(=O)[C@H](CO)NC(=O)[C@H](CC(C)C)NC(=O)[C@H](CC(=O)O)NC(=O)[C@H](CO)NC(=O)[C@@H](NC(=O)[C@H](Cc1ccccc1)NC(=O)[C@@H](NC(=O)CNC(=O)[C@H](CCC(N)=O)NC(=O)C(C)(C)NC(=O)[C@@H](N)Cc1ccc(O)cc1)[C@@H](C)O)[C@@H](C)O)[C@@H](C)CC)C(=O)N[C@@H](CCC(=O)O)C(=O)N[C@@H](CCC(N)=O)C(=O)N[C@@H](CCCNC(=N)N)C(=O)N[C@@H](C)C(=O)N[C@@H](C)C(=O)NC(C)(C)C(=O)N[C@@H](CCC(=O)O)C(=O)N[C@@H](Cc1ccccc1)C(=O)N[C@H](C(=O)N[C@@H](CCC(=O)O)C(=O)N[C@@H](Cc1c[nH]c2ccccc12)C(=O)N[C@@H](CC(C)C)C(=O)N[C@@H](CCCCN)C(=O)N[C@@H](CC(N)=O)C(=O)N[C@H](C(=O)NCC(=O)N1CCC[C@H]1C(=O)N[C@@H](CO)C(=O)N[C@@H](CO)C(=O)NCC(=O)N[C@@H](C)C(=O)N1CCC[C@H]1C(=O)N1CCC[C@H]1C(=O)N1CCC[C@H]1C(=O)N[C@@H](CO)C(N)=O)[C@@H](C)O)[C@@H](C)CC

Key:
Assay in all cases: cell-based or functional assay
human GIP receptor = target: T1, human GIP receptor
human GLP-1 receptor = human GLP-1 receptor (human, UniProt P43220 24-463)
human glucagon receptor = human glucagon receptor (human, UniProt P47871 26-477)
Chain of human glucagon receptor (P47871 26-477): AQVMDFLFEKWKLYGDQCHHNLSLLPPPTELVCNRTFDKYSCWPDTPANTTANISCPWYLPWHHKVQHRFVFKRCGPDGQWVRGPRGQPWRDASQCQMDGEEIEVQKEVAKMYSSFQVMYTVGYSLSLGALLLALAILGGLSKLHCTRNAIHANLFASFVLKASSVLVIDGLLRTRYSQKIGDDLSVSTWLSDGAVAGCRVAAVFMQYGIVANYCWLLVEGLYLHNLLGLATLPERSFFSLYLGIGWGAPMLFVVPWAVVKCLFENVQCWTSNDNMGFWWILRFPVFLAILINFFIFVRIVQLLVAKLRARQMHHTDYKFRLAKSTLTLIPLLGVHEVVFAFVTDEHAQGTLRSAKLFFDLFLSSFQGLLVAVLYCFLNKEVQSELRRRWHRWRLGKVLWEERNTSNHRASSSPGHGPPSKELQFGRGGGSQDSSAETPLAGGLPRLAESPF

Row | Binder | EC50 hGIP R (human GIP receptor) | EC50 hGLP-1 R (human GLP-1 receptor) | EC50 hGLUC R (human glucagon receptor)
1 | B1 | 0.0156 nM | 0.007 nM | 17 nM
2 | B2 | 0.0083 nM | 0.0052 nM | 21 nM
3 | B3 | 0.0095 nM | 0.0183 nM | 0.0095 nM
4 | B4 | 0.0915 nM | 0.0085 nM | 0.137 nM
5 | B5 | 0.0163 nM | 0.0082 nM | 18.2 nM
6 | B6 | 0.189 nM | 0.037 nM | 0.674 nM
